These results are taken from patent US20090149389A1 (PURDUE RESEARCH FOUNDATION, published 2009).

Read-outs that look alike come from different tables or passages of the source.

Among the targets are CDKI/cyclinB (h) (human (h), UniProt P06493 1-297); ROCK-1 (h) (human (h), UniProt Q13464 17-535, limits assumed); Syk (h) (human (h), UniProt P43405 1-635); PKCδ (h) (human (h), UniProt Q05655 1-676); L1MK1 (h) (human (h), UniProt P53667 285-638, limits assumed); KDR (tl) (UniProt P35968 790-1356, limits assumed); MSK1 (h) (human (h), UniProt O75582 1-802); Abl (h) (human (h), UniProt P00519 27-1130, limits assumed); Tie2 (h) (human (h), UniProt Q02763 771-1124, limits assumed); Rsk2 (h) (human (h), UniProt P51812 1-740); SAPK2 a (h) (human (h), UniProt Q16539 1-360).

What all share (experiment): cell-based or functional assay
Experiment [1] addresses T1, MAPKI (h) (human (h), UniProt P28482 1-360, limits assumed).
The target of experiment [2] is T2, TrkA (h) (human (h), UniProt P04629 441-796, limits assumed).
T2 sequence (P04629 441-796 limits assumed): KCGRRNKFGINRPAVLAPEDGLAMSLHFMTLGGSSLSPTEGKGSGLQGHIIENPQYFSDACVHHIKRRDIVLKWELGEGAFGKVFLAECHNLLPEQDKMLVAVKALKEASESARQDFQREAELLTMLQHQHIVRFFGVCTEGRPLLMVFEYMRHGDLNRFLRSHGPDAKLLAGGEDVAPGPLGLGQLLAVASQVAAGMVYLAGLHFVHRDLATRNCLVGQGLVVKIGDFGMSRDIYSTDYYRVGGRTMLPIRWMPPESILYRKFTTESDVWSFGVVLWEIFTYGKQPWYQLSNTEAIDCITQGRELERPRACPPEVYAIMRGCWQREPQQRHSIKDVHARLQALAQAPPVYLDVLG
Experiment [3] concerns the target T3, Met (h) (human (h), UniProt P08581 974-1390, limits assumed).
The target of a further experiment is T4, PKG1β (h) (human (h), UniProt Q13976-2 1-686).
T4 sequence (looked up): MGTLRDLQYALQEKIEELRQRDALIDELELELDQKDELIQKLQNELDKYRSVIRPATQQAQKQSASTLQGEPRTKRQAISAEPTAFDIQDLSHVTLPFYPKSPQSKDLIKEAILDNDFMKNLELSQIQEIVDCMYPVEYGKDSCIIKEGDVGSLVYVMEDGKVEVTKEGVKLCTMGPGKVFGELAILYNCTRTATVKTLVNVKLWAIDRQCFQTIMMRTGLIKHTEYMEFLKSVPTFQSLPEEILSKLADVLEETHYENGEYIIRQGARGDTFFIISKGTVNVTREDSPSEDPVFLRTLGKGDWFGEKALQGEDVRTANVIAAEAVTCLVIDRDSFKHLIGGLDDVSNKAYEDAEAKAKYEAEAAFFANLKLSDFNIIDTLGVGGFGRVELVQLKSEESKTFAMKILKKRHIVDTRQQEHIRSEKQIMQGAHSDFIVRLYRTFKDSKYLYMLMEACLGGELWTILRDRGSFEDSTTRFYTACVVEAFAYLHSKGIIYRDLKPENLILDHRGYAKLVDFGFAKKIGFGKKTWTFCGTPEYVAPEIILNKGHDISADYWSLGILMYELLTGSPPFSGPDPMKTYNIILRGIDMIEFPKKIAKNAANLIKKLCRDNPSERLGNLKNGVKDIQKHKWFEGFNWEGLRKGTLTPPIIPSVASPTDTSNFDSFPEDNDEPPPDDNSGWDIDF

The next experiment addresses T5, MKK6 (h) (human (h), UniProt P52564 1-334, limits assumed).
T5 sequence (looked up): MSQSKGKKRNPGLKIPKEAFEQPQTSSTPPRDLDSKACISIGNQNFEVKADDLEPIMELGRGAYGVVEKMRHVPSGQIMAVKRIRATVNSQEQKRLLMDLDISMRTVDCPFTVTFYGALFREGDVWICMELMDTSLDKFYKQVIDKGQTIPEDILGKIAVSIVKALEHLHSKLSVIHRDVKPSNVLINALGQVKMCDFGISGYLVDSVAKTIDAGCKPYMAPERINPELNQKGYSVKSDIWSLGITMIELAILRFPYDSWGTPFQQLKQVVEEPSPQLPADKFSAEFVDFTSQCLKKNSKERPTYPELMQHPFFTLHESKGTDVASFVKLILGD

The target in experiment [4] is T1, MAPKI (h). This is another data set of the same source.
Experiment [5] concerns the target T2, TrkA (h). The source holds these as a separate data set.
Experiment [6] concerns the target T3, Met (h). The source holds these as a separate data set.
The target of another experiment is T6, PRAK (UniProt Q8IW41 1-473, limits assumed).
T6 sequence (looked up): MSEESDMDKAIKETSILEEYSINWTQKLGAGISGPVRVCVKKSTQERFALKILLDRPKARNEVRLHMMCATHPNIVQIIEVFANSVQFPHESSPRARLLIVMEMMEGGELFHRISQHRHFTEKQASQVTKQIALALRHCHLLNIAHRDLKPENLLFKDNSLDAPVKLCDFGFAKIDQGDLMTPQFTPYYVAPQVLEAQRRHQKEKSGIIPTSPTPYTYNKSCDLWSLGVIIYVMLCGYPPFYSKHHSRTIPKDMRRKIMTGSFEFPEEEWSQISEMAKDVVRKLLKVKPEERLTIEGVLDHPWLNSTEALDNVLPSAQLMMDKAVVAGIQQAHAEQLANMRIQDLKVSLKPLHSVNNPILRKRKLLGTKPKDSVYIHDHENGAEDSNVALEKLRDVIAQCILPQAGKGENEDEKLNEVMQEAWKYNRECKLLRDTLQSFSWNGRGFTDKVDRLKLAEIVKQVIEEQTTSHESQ

T1 sequence (P28482 whole entry): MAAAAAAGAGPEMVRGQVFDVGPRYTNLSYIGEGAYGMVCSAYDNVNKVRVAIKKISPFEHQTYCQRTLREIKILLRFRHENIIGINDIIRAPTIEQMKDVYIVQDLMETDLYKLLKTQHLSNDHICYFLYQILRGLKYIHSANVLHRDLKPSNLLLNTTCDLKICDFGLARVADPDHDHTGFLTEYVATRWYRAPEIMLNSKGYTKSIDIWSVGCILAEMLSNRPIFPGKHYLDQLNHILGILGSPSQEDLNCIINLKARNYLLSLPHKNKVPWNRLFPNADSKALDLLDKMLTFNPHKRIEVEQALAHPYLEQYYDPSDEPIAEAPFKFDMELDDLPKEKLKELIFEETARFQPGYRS
T3 sequence (P08581 974-1390 limits assumed): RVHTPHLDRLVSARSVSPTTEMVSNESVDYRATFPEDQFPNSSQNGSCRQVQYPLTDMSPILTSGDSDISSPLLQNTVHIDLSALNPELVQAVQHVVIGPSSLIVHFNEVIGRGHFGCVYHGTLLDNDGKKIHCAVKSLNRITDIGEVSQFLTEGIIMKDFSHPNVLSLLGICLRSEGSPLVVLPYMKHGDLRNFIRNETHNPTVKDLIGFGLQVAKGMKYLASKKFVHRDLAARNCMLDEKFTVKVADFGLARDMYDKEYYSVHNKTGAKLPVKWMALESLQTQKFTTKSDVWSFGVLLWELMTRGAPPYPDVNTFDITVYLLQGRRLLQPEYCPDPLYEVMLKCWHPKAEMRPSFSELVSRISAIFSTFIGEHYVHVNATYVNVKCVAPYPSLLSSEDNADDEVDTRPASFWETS
Sequence of Tie2 (h) (Q02763 771-1124 limits assumed): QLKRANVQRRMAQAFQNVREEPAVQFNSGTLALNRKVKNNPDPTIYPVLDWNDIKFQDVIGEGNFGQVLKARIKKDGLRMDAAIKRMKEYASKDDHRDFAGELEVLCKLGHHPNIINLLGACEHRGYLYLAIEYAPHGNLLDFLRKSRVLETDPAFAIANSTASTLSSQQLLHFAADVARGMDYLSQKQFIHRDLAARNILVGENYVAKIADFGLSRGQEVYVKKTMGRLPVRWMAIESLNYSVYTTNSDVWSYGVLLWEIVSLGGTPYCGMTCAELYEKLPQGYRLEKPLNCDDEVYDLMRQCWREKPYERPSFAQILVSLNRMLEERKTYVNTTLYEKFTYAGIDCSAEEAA
Sequence of L1MK1 (h) (P53667 285-638 limits assumed): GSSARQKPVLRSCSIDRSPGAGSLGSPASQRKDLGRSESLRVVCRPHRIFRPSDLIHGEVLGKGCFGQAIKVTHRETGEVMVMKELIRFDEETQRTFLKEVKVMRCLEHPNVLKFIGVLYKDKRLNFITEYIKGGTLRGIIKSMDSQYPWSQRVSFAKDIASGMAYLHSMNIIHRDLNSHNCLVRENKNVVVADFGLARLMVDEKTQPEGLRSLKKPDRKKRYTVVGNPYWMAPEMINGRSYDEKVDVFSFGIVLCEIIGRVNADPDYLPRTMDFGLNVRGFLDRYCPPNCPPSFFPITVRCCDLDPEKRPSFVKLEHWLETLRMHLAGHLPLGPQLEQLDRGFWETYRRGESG
Sequence of Rsk2 (h) (P51812 whole entry): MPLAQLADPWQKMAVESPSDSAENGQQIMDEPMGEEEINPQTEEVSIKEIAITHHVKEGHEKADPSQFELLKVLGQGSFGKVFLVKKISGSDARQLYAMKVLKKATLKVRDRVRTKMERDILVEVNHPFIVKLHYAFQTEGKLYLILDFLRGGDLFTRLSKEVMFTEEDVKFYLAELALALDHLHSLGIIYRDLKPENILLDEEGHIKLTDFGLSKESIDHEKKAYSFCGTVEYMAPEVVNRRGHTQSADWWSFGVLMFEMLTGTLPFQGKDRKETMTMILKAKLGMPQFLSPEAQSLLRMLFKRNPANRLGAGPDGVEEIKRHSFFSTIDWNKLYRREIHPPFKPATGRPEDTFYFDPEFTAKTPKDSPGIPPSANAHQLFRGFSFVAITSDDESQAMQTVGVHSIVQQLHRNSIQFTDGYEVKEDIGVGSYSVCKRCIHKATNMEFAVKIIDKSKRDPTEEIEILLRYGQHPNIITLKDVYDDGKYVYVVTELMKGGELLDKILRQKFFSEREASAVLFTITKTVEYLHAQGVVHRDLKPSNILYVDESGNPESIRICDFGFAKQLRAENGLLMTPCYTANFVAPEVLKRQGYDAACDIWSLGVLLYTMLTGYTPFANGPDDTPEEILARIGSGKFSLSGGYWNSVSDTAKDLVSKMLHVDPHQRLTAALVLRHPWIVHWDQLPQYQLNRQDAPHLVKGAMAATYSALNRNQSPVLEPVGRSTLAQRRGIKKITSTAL
Sequence of SAPK2 a (h) (Q16539 whole entry): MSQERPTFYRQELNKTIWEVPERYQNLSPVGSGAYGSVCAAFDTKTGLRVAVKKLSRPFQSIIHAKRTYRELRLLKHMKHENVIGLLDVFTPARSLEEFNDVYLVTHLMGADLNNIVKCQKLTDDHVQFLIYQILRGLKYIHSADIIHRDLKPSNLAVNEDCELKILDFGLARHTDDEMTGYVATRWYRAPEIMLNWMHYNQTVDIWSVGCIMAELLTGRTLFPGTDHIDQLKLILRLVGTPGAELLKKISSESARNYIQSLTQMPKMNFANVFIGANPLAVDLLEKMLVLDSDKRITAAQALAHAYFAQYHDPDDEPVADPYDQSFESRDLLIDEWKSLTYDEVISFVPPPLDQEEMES
Sequence of CDKI/cyclinB (h) (P06493 whole entry): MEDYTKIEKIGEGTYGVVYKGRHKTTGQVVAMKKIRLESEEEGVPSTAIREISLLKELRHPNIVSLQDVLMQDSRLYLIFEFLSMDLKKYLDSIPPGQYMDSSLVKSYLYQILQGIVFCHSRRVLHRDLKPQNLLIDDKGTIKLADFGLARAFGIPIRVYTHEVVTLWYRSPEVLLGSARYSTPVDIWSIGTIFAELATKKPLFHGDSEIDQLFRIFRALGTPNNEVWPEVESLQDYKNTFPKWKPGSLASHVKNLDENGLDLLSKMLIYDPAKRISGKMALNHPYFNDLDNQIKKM
Sequence of ROCK-1 (h) (Q13464 17-535 limits assumed): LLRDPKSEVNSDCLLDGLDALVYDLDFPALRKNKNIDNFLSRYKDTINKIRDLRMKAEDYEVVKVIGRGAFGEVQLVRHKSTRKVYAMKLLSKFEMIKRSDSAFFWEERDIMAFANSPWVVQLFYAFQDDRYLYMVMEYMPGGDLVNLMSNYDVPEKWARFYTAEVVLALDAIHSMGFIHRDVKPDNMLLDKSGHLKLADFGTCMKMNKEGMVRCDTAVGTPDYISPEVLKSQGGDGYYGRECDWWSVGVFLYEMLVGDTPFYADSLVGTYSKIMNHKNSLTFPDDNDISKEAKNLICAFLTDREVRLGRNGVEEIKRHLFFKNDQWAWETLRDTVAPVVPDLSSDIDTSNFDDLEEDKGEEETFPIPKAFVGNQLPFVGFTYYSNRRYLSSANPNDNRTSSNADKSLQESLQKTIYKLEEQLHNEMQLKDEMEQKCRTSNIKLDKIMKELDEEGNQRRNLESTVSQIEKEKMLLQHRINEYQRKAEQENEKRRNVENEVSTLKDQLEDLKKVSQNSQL
Sequence of Abl (h) (P00519 27-1130 limits assumed): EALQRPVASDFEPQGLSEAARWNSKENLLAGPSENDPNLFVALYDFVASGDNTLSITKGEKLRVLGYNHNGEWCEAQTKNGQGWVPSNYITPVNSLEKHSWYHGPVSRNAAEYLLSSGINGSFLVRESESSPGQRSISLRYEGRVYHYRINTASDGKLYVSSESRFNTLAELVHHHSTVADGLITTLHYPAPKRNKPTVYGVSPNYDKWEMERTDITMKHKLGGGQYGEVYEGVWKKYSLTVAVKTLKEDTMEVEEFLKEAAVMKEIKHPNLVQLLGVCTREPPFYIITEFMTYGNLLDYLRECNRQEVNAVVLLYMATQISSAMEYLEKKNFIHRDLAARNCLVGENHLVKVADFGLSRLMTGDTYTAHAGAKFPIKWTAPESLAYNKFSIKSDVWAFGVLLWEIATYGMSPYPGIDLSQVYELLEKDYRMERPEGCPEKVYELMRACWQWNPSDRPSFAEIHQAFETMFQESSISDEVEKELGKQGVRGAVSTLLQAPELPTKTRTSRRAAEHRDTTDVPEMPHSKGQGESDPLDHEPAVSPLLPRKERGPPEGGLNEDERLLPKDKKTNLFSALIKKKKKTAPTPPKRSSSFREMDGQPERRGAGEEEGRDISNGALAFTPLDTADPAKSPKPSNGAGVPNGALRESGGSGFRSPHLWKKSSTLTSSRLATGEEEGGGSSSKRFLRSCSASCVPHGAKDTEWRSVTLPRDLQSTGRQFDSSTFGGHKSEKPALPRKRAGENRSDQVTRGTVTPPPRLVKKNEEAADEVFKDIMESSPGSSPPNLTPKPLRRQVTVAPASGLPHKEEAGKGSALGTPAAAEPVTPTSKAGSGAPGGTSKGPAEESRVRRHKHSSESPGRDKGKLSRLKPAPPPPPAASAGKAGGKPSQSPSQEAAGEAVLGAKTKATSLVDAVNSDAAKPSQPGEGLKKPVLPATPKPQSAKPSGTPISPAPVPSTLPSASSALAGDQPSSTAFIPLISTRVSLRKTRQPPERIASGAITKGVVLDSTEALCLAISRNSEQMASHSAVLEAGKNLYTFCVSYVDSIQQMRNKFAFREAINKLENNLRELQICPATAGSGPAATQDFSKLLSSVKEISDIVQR

FAKLAARLYRKALARQLGVAA: the “Profile-1 @ = 100 µm (kinase profiler assay)” value (shortened to “Profile-1 @ = 100 µm”) with CDKI/cyclinB (h) worked out at 36; in the experiment with ROCK-1 (h), 25; with Syk (h) it was 38; with MAPKI (h) [1], 104; in the experiment with PKCδ (h), 40; with TrkA (h) [2], 17. The “Profile-1 @ = 100 µm” value turned out to be 17 in the experiment with Met (h) [3]; 15 with PKG1β (h); 92 with L1MK1 (h); 78 in the experiment with KDR (tl); 11 in the experiment with MSK1 (h).
As to KAFAKLAARLYRKALARQLGVAA, the “Profile-1 @ = 100 µm” value is 48 in the experiment with MKK6 (h); 108 with MAPKI (h) [4]; 55 with Abl (h); 16 with TrkA (h) [5]; 8 with Tie2 (h); 22 with Met (h) [6]. In addition, the “Profile-1 @ = 100 µm” value with Rsk2 (h) was 6; with PRAK, 148; with SAPK2 a (h), 59.
